Data from patent publication US20220017863A1 (H LEE MOFFITT CANCER CENTER AND RESEARCH INSTITUTE, published 2022).

Columns and labels:
[1] = biological target: succinate dehydrogenase subunit alpha (SDHA) (mouse, UniProt Q8K2B3 43-664); experiment: IP of Sirt2, LC-MS/MS, activated WT mouse CD3+ T cell extracts
[2] = biological target: T1, alanine, serine, cysteine-preferring transporter 2 (ASCT2) (mouse, UniProt P51912 1-553); experiment: as above
T1 construct: Endogenous protein in lysate; also called Glutamine transporter ASCT2; ACST2
T1 sequence (looked up): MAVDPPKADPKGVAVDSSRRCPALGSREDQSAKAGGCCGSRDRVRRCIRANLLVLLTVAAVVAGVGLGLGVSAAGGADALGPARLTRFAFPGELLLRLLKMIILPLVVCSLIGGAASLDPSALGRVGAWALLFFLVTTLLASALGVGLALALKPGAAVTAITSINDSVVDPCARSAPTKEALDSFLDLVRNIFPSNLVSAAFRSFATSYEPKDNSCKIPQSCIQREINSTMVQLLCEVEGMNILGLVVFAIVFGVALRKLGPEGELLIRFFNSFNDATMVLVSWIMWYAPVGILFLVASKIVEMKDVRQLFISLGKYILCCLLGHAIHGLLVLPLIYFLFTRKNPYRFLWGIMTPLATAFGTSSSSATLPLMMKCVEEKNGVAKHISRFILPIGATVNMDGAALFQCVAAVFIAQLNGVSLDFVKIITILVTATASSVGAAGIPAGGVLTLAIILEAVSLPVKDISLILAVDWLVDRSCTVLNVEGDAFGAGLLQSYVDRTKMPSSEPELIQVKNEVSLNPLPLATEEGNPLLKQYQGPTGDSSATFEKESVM

Hexokinase 1 (HK1) = biological target: T2, Hexokinase 1 (HK1) (mouse, UniProt P17710-3 1-918, limits assumed); experiment: co-IP with anti-Sirt2, immunoblot, activated WT mouse CD3+ T cell extracts (FIG. 3B)
T2 construct: Endogenous protein in lysate
T2 sequence (looked up): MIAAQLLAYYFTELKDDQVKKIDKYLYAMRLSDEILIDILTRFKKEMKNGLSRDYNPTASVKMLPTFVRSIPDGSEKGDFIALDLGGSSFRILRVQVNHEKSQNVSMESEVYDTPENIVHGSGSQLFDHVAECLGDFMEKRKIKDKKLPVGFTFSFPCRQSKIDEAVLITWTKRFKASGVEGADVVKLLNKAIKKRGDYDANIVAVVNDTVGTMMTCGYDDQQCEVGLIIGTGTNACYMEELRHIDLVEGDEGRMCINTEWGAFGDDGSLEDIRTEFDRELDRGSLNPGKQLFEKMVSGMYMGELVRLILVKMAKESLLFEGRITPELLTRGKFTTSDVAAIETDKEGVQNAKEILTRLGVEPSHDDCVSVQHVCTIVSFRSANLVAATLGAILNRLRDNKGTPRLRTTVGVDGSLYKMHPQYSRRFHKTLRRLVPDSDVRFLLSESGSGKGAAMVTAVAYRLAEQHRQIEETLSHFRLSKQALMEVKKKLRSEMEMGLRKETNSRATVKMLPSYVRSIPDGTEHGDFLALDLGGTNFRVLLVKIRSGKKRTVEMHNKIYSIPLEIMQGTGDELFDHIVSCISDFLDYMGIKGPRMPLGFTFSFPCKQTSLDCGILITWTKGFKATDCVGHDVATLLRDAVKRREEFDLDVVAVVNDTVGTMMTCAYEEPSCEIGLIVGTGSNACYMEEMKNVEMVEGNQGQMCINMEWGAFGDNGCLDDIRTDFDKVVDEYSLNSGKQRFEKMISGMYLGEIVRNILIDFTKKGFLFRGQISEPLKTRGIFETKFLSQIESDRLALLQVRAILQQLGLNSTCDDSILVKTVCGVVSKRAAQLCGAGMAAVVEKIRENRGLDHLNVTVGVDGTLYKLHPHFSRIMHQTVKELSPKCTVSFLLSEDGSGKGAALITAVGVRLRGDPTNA

[3] = biological target: T3, phosphofructokinase P (PFKP) (mouse, UniProt Q9WUA3 1-784); experiment: co-IP/immunoblot and reverse co-IP/immunoblot, activated WT mouse CD3+ T cell extracts
T3 sequence (looked up): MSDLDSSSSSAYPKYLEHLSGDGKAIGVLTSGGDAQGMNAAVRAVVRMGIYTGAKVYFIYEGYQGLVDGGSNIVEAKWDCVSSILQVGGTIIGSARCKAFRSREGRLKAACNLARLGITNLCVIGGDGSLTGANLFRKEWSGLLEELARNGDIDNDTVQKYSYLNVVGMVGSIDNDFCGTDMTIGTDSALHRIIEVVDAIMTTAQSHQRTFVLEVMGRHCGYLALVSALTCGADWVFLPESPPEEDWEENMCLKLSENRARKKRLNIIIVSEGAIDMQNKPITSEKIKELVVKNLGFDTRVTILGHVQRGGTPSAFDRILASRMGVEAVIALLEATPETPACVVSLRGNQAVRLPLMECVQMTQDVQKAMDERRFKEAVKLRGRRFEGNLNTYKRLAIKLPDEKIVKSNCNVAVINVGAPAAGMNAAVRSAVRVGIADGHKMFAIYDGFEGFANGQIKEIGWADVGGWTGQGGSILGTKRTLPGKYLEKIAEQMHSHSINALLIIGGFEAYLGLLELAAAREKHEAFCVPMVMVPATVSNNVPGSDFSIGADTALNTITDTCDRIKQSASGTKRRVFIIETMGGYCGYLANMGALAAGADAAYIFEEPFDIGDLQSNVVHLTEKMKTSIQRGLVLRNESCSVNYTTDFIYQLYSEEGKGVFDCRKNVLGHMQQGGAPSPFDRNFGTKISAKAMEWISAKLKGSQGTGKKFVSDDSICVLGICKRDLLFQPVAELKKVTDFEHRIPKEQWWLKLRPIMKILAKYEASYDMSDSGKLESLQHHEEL

pyruvate kinase M (PKM) = biological target: T4, pyruvate kinase M (PKM) (mouse, UniProt P52480 1-531, limits assumed); experiment: reverse co-IP with antibody to the enzyme, anti-Sirt2 immunoblot, activated WT mouse CD3+ T cell extracts (FIG. 3C)
T4 construct: also called PKM1/2; pyruvate kinase isozymes M1/M2

Measured: binding result

succinate dehydrogenase subunit alpha (SDHA), sequence (Q8K2B3 43-664 limits assumed): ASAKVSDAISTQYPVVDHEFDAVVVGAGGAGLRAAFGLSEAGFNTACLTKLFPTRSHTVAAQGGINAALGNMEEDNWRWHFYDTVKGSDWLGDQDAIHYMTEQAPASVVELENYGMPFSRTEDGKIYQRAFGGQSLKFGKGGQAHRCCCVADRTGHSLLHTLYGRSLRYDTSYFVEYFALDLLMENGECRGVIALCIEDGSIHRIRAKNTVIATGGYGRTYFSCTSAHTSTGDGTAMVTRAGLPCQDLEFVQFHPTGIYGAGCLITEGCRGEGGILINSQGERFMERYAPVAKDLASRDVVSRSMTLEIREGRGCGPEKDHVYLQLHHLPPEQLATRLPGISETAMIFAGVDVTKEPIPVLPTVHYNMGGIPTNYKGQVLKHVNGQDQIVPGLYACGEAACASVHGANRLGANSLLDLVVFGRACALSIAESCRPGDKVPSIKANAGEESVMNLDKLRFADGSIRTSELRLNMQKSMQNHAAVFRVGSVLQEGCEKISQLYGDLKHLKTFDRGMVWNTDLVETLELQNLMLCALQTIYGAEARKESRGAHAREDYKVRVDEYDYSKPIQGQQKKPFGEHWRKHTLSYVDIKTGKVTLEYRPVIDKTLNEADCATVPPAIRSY
T4 sequence (P52480 whole entry): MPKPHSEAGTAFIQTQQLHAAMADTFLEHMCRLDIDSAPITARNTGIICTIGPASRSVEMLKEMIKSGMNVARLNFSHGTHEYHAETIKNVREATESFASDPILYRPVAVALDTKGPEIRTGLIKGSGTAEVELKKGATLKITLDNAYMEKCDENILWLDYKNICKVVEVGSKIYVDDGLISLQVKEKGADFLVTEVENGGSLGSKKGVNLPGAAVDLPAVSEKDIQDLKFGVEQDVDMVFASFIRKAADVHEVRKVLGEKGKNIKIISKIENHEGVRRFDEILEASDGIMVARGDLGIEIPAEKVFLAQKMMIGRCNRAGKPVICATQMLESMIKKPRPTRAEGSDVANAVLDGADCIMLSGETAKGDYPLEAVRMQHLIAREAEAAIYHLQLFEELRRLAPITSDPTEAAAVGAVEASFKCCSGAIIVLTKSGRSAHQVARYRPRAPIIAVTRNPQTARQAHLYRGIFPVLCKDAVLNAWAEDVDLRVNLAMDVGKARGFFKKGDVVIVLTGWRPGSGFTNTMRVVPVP

B1: Sirt2 (enzyme, mouse, UniProt Q8VDQ8 2-389, looked up)
chain: AEPDPSDPLETQAGKVQEAQDSDSDTEGGATGGEAEMDFLRNLFTQTLGLGSQKERLLDELTLEGVTRYMQSERCRKVICLVGAGISTSAGIPDFRSPSTGLYANLEKYHLPYPEAIFEISYFKKHPEPFFALAKELYPGQFKPTICHYFIRLLKEKGLLLRCYTQNIDTLERVAGLEPQDLVEAHGTFYTSHCVNTSCRKEYTMGWMKEKIFSEATPRCEQCQSVVKPDIVFFGENLPSRFFSCMQSDFSKVDLLIIMGTSLQVQPFASLISKAPLATPRLLINKEKTGQTDPFLGMMMGLGGGMDFDSKKAYRDVAWLGDCDQGCLALADLLGWKKELEDLVRREHANIDAQSGSQAPNPSTTISPGKSPPPAKEAARTKEKEEQQ
notes: Endogenous protein immunoprecipitated from T cell lysates with anti-Sirt2 (Sigma #9441); also called Sirtuin 2
binds: all assays above
